This passage reports Km results from PMC2576468, “The orthologue of the "acatalytic" mammalian ART4 in chicken is an arginine-specific mono-ADP-ribosyltransferase” (BMC Molecular Biology, 2008).

Broadly, the Km is the substrate concentration at which the rate is half of its maximum.

Substrate in the data set: NC(=O)c1ccc[n+]([C@@H]2O[C@H](COP(=O)([O-])OP(=O)(O)OC[C@H]3O[C@@H](n4cnc5c4ncn4ccnc54)[C@H](O)[C@@H]3O)[C@@H](O)[C@H]2O)c1
Nature of the data set: purified protein. The class given is biochemical, Gallus gallus. The settings on record: poly-L-arginine 1 mg/ml as acceptor, PBS pH 7.4, room temperature, glycosylated protein (no PNGase F).

B1: recombinant chicken ART4 (chART4) (Gallus gallus) (protein)
chain: SHLMMDMALHSFDDQYLGCREQMMEELERGDYFQKEIAANKNYSSLWKKAQEALLKSSVGLLREMHDSHATALMAYTMNSSLHSQLNWATSTAGRSPEQYRHNFSFKYFHFYLTTAIQIMKQWQSSKDNVRKRHCYRVHRGVKDLYIKATVGSIVRFGRFTSTSCLWNEAQKFGNETLFTVTTCLGAAMQGFSYYTSEKEVLIPPYEIFLVKNFFRTRRGNRLHLHSVGNYSKYHYQLLEASRIKNGGSTA
notes: N-glycosylated
Take B1: the Km was determined as 1.0 ± 0.18 µM.
